Test results from patent US20210309754A1 (JCR PHARMACEUTICALS, published 2021).

T1: recombinant monkey TfR (r monkey TfR: Sino Biological Inc.), cynomolgus monkey TfR extracellular region with … (cynomolgus monkey (Macaca fascicularis), UniProt Q5RDH6 89-760 (Pongo abelii entry))
T1 construct: Bought (Sino Biological); also called r monkey TfR-ECD (Histag); not shown: histidine tag attached to the N-terminus
T1 chain: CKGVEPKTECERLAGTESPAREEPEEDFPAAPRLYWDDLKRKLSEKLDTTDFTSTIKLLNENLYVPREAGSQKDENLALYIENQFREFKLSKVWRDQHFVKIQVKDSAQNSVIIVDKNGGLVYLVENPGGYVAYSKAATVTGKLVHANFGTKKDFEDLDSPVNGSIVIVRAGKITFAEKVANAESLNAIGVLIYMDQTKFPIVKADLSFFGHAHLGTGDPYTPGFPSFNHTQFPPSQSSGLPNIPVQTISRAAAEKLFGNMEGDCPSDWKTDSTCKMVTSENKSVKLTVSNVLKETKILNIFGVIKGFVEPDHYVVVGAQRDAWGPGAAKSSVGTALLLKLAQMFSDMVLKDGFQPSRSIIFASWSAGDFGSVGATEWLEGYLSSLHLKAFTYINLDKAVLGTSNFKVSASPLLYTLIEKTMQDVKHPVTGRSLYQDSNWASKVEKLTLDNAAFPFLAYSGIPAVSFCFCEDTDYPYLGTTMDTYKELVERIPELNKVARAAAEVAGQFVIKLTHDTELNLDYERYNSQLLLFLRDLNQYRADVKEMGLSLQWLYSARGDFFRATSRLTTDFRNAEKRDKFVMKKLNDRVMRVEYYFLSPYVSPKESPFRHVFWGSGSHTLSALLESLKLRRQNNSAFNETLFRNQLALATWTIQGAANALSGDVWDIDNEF


Target: T1, recombinant monkey TfR (r monkey TfR: …)
Experiment: BLI, Octet RED96, His-TfR ECD on Ni-NTA sensor
Protocol: By measuring the variations of this shift between the interfering waves, determination of the number of the molecules bound to the layer of the biomolecules immobilized to the sensor tip surface and kinetic analysis of it can be performed in real time. The measurement was performed according generally to the operating manual attached to Octet RED96. As a human TfR, a recombinant human TfR (r human TfR: Sino Biological Inc.) was used, which had the amino acid sequence of the hTfR extracellular region, i.e., the cysteine residue at the position 89th from the N-terminal side to the phenylalanine at the C-terminus, of the amino acid sequence set forth as SEQ ID NO:1, with a histidine tag attached to the N-terminus. As a monkey TfR, a recombinant monkey TfR (r monkey TfR: Sino Biological Inc.) was used, which had the amino acid sequence of the cynomolgus monkey TfR extracellular region, i.e., the cysteine residue at the position 89th from the N-terminal side to the phenylalanine at the C-terminus, of the amino acid sequence set forth as SEQ ID NO:2, with a histidine tag attached to the N-terminus. […]

koff [s⁻¹] | Kd [nM] | Binder
1.75e-05 |  | anti-hTfR antibody No. 2 (antibody, V domains shown, Mouse monoclonal antibody from a hybridoma, purified on Protein G; also called mouse anti-hTfR antibody No. 2; antibody of Clone 2 line) VH: EVQLQESGAELVRPGVSVKISCKGSGYTFTDYVMHWVRQSHAKSLEWIGVISTYYGHGSYNQRFKGKATMTVDKSSSTAYLELVRLTSEDSAIYYCVRGGYGSSSLAGNFDVWGAGTTVTVSS VL: DIVLTQSPATLSVTPGDSVSLSCRASQSISNNLQWYQQKSHESPRLLIKYASQSISGIPSRFSGSGSGTDFTLSINSVETEDFGMYFCQQSNSWPRTFGAGTKLELKR
 | 0.477 | anti-hTfR antibody No. 6 (antibody, V domains shown, Mouse monoclonal antibody from a hybridoma, purified on Protein G; also called mouse anti-hTfR antibody No. 6; antibody of Clone 6 line) VH: EVQLQESGPGLVAPSQSLSITCSVSGFSLSTYGVYWVRQPPGKGLEWLGIIWGDGSTNYHSALISRLTISKDNSKSQVFLKLNSLQTADTATYYCAKPDDVWGAGTTVTVSS VL: DIVLTQTPSSLSASLGERVSLTCRASQEISGYLSWLQQKPDGTIKRLIYAASTLDSGVPKRFSGSRSGSDYSLTISSLESEDFADYYCLQYSSYPRTFGGGTKLEIK
